Data reported in the supplement of paper PMC9732359.
± gives the uncertainty stated by the source.

Test: protein stability index of a GFP-peptide fusion (yeast GPS) (PSI 1-4); higher = more stable; sorted into four equal gates, so the index is relative within each strain
Method in brief: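 Tiled yeast protein peptides of 17 residues were each joined downstream of GFP, on plasmids that also express Cherry. The pooled library was maintained in yeast, and mid-log cultures in leucine-free medium were sorted into four equal gates on the GFP/Cherry ratio. Plasmids from every gate were amplified by PCR and sequenced on Illumina, with barcodes linking reads to strains. The protein stability index of a peptide is its gate-number-weighted read frequency summed over the gates.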

Sequence	protein stability index (doa10∆)	protein stability index (pdr5∆)	protein stability index (san1∆)	protein stability index (ubr1∆)
CSFAVTKSSLNDLDYDL [YML103C/NUP188]	3.04 ± 0.1	3.13 ± 0.091	3.01 ± 0.078	3.1 ± 0.055
PSFTDEQWITIESQMRD [PRP8]	2.44 ± 0.067	2.66 ± 0.064	2.8 ± 0.069	2.6 ± 0.053
NNNNTNTQPSASGFGFG [YGR119C/NUP57]	3.22 ± 0.081	2.28 ± 0.059	2.51 ± 0.062	2.89 ± 0.036
VFKTHSYRGVDLEKLLE [RPS15]	3.2 ± 0.083	3.18 ± 0.062	3.14 ± 0.045	2.29 ± 0.04
QGIVRVYSKQATFLLTD [MCD1]	1.97 ± 0.038	2.29 ± 0.047	2.35 ± 0.049	2.03 ± 0.037
EQQKEELTDKLSALNSE [SMC1]		3.19 ± 0.11	2.73 ± 0.15	3.14 ± 0.12
SVVRVLVHTQIRKTPLA [RPL3]	1.19 ± 0.076	1.35 ± 0.096	1.11 ± 0.14	1.54 ± 0.046
KIYMLYSLQPSVDITGG [RPC34]	1.94 ± 0.13	2.27 ± 0.15		2.27 ± 0.14
TNTSKQFQKARNNVMLL [SRB8]	2.65 ± 0.14	3 ± 0.066	2.94 ± 0.06	2.92 ± 0.083
VTPEDVMTISSLEQRTL [RPC82]	3.2 ± 0.084	3.1 ± 0.076	3.06 ± 0.061	3.25 ± 0.073
HIQVNQAPKQRRRTYRA [RPL17A]	1.89 ± 0.12	2.34 ± 0.11	2.38 ± 0.2	3.28 ± 0.14
TSLTSIKWENAFVSVYS [PRP8]	2.94 ± 0.07	2.62 ± 0.07	3 ± 0.08	2.67 ± 0.038
RVQVGDIVTVGQCRPIS [RPS11A]	3.14 ± 0.16	3.26 ± 0.082	3.07 ± 0.067	3.23 ± 0.074
RPNRRGPRNTEEKGWVP [RPS2]	3.42 ± 0.15	3.49 ± 0.13	3.68 ± 0.12	3.66 ± 0.079
DDLALPYQHPPNIFPNL [ITC1]	3.37 ± 0.097	3.43 ± 0.12	3.43 ± 0.074	3.21 ± 0.046
LDVTKEAQANLLTAKHG [RPO21]	3.23 ± 0.17	3.46 ± 0.18	2.8 ± 0.19	3.18 ± 0.19
RGFIKSEGSGSSLVQKG [RPC53]	3.37 ± 0.1	3.34 ± 0.09	3.31 ± 0.076	3.14 ± 0.057
DRKNRAPPQRPRFNREN [RPS26A]	2.81 ± 0.11	2.64 ± 0.082	3.29 ± 0.11	3.02 ± 0.091
KSIRKDTVEEKKEEKLN [SIR4]	2.96 ± 0.088	3.2 ± 0.12	3.17 ± 0.065	2.76 ± 0.091
SKFYNMKQPYVFVKKHH [SSN2]	1.58 ± 0.11	1.5 ± 0.11	1.24 ± 0.14	1.28 ± 0.044
ESKSLLNLFSNVLKAPF [SIR4]	2.39 ± 0.086	2.16 ± 0.13	1.56 ± 0.21	2.48 ± 0.077
YHSGRLLIQGPKASSAK [ITC1]	3.15 ± 0.11	3.29 ± 0.078	3.2 ± 0.059	3.17 ± 0.073
GTVSRVNRLLSVIPLKG [RRP4]	1.25 ± 0.058	1.38 ± 0.05	1.2 ± 0.14	1.23 ± 0.048
YKVMHQIRACKDLKHII [PRP8]	2.27 ± 0.041	2.41 ± 0.046	2.21 ± 0.052	2.19 ± 0.05
PVEKVKEHDEIEEQGDA [DPB4]	3.19 ± 0.095	3.34 ± 0.12		3.5 ± 0.11
PSTGGVKKPHRYKPGTV [HHT1]	1.59 ± 0.065	1.62 ± 0.057	1.64 ± 0.097	1.81 ± 0.072
SKKTGQFNAQGVRDINC [POP1]			3.16 ± 0.12	

Sequence	protein stability index (doa10∆)	protein stability index (pdr5∆)	protein stability index (san1∆)	protein stability index (ubr1∆)
QGRRNSRNFSTRDEETT [SIR4]	3.04 ± 0.064	3.11 ± 0.055	3.12 ± 0.041	2.98 ± 0.041
FLARVIKEKFDEFIKTH [IRR1]	2.79 ± 0.081	2.83 ± 0.08	2.8 ± 0.059	2.88 ± 0.074
EHTDVIDELIDTKLRLE [YIL149C/MLP2]	2.87 ± 0.052	3 ± 0.059	2.77 ± 0.039	2.7 ± 0.034
QQQIESNEEQRNLDSAT [SMC3]			3.43 ± 0.091	
VSKKVDVRRLKKNVWRS [BRN1]	2.54 ± 0.22	1.33 ± 0.13		3.13 ± 0.13
EVVEVQEETVVEQTAEV [RPS12]	3.15 ± 0.1	3.36 ± 0.11	2.97 ± 0.076	3.24 ± 0.097
GPEITPEEATTIFSVMV [PRP8]	2.09 ± 0.13	2.37 ± 0.14	1.77 ± 0.22	2.6 ± 0.13
SEPIKEIIDNWEKYEQS [FAS1]	2.88 ± 0.097	3.22 ± 0.07	3.23 ± 0.048	2.96 ± 0.059
GSKISSNDLDKFFQKKI [YGL172W/NUP49]	1.72 ± 0.069	2.02 ± 0.076	1.7 ± 0.074	2.27 ± 0.057
DSKNTPNVFDKDSYVRI [YDL088C/ASM4]	3.01 ± 0.12	3.11 ± 0.048	3.06 ± 0.072	3.25 ± 0.051
VRLLCRSDGMGNVLLNA [YLR335W/NUP2]	1.94 ± 0.17	2.41 ± 0.13	2.02 ± 0.18	2.53 ± 0.12
KDHLLLEEEFVSNSEIL [RPT2]	2.87 ± 0.09	2.83 ± 0.065	2.83 ± 0.066	2.74 ± 0.078
KDFLKAVDKVISGYKKF [RPT1]	3.21 ± 0.074	3.38 ± 0.09	3.12 ± 0.092	3.33 ± 0.051
FEIVDREKNSLESGKET [SMC4]	3.31 ± 0.26	3.16 ± 0.18		
LDYQETYVEELFPIVKK [YJL039C/NUP192]	2.81 ± 0.071	3.07 ± 0.1	2.87 ± 0.1	2.75 ± 0.062
NLLLRELNVEKLNTFNL [SRP72]	2.71 ± 0.15	3.41 ± 0.2	2.95 ± 0.099	2.95 ± 0.13
PEGYKAKSISTSAKEPS [RPO31]	1.39 ± 0.085	1.51 ± 0.077	1.45 ± 0.19	1.86 ± 0.09
TTVSNDLENSPLKTELE [SSN2]	3.05 ± 0.13	3.16 ± 0.096	3.16 ± 0.072	3.19 ± 0.082
ESENFKIIALQPNEISF [RGR1]	2.39 ± 0.091	2.55 ± 0.11	2.54 ± 0.084	2.49 ± 0.075
KHDSLRYRLLSDVSDFE [RPN1]	2.7 ± 0.09	3.04 ± 0.1	2.75 ± 0.089	2.66 ± 0.098
YNVCDTSKSLVKRYRLA [SIN4]	2.39 ± 0.055	2.81 ± 0.058	2.58 ± 0.062	3.16 ± 0.042
EGAARGTSVYLVDKRID [DIS3]	3.38 ± 0.17	3.33 ± 0.14	3.13 ± 0.086	3.08 ± 0.12
TGAGVSTSLGIPDFRSS [SIR2]	2.19 ± 0.079	2.51 ± 0.082	2.1 ± 0.19	2.86 ± 0.078
LGTLVNQKTSAVAALTE [RPL8A]	2.37 ± 0.095	2.45 ± 0.082	2.4 ± 0.15	2.25 ± 0.11
HLELYTSQYGTPSTETA [PRE3]	1.39 ± 0.043	1.9 ± 0.04	1.44 ± 0.084	1.64 ± 0.037
VYDFYGRHVATCSSDQH [YGL100W/SEH1]	2.75 ± 0.068	2.32 ± 0.06	2.43 ± 0.072	2.2 ± 0.049
